Test results taken from patent publication US20260209293A1 (Novo Nordisk, published 2026).
Values belong to the binder of their own block, whether it stands above or below them. *1 amine or outer side, *2 acyl side, *3 side chain or, on linkers, in order; H or OH if unused. The star is where a group is joined. C20 diacid = O=C(O)CCCCCCCCCCCCCCCCCCC(=O)*; C18 diacid = O=C(O)CCCCCCCCCCCCCCCCC(=O)*; γGlu = O=C(O)[C@H](CCC(=O)[*:2])N[*:1]

Assays:
[1] = molecular target: T1, human calcitonin receptor (a) (human, UniProt P30988 25-474); test: cell-based or functional assay
T1 sequence (looked up): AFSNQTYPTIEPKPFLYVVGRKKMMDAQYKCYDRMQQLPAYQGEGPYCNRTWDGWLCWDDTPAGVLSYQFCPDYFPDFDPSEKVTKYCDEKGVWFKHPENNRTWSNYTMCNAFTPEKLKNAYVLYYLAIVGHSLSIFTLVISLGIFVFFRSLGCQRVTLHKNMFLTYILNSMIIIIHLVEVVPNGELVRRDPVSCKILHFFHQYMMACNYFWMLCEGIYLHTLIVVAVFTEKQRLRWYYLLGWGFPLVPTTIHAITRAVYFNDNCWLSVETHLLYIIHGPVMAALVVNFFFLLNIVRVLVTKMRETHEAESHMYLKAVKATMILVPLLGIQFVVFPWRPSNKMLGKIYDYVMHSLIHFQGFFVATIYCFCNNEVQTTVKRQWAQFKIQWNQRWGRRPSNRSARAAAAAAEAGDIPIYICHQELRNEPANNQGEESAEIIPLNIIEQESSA

[2] = molecular target: T2, human amylin-3(a) receptor (human, UniProt P30988 25-474; O60896 24-148); test: cell-based or functional assay
T2 sequence (looked up) 1: T1 sequence (looked up)
T2 sequence (looked up) 2: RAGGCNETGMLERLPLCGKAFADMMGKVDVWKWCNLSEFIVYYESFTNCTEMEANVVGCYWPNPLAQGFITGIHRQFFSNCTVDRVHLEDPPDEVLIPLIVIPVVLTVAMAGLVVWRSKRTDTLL

- hCalcR potency, EC50 (pM); CRE-luciferase reporter in BHK cells [1]: 2.16 pM
- hAmyR3 potency, EC50 (pM); CRE-luciferase reporter in BHK cells [2]: 1.68 pM
B1: N^1-[(4S)-4-carboxy-4-(17-carboxyheptadecanoylamino)butanoyl]-[Ala1,Ser2,His3,Leu4,Ser5,Ala7,Gln8,Ala10,Glu14,His17,Asp21,Pro22,Pro27,Asp31, Pro34,Asp35]-human … (peptide)
peptide: {C18 diacid-γGlu}-ASHLSTAQTARLAEFLHHSSDPFGAIPSSTDVGPDTY-NH2
SMILES: CC[C@H](C)[C@H](NC(=O)[C@H](C)NC(=O)CNC(=O)[C@H](Cc1ccccc1)NC(=O)[C@@H]1CCCN1C(=O)[C@H](CC(=O)O)NC(=O)[C@H](CO)NC(=O)[C@H](CO)NC(=O)[C@H](Cc1c[nH]cn1)NC(=O)[C@H](Cc1c[nH]cn1)NC(=O)[C@H](CC(C)C)NC(=O)[C@H](Cc1ccccc1)NC(=O)[C@H](CCC(=O)O)NC(=O)[C@H](C)NC(=O)[C@H](CC(C)C)NC(=O)[C@H](CCCNC(=N)N)NC(=O)[C@H](C)NC(=O)[C@@H](NC(=O)[C@H](CCC(N)=O)NC(=O)[C@H](C)NC(=O)[C@@H](NC(=O)[C@H](CO)NC(=O)[C@H](CC(C)C)NC(=O)[C@H](Cc1c[nH]cn1)NC(=O)[C@H](CO)NC(=O)[C@H](C)NC(=O)CC[C@H](NC(=O)CCCCCCCCCCCCCCCCC(=O)O)C(=O)O)[C@@H](C)O)[C@@H](C)O)C(=O)N1CCC[C@H]1C(=O)N[C@@H](CO)C(=O)N[C@@H](CO)C(=O)N[C@H](C(=O)N[C@@H](CC(=O)O)C(=O)N[C@H](C(=O)NCC(=O)N1CCC[C@H]1C(=O)N[C@@H](CC(=O)O)C(=O)N[C@H](C(=O)N[C@@H](Cc1ccc(O)cc1)C(N)=O)[C@@H](C)O)C(C)C)[C@@H](C)O

- hCalcR potency, EC50 (pM); CRE-luciferase reporter in BHK cells [1]: 1.74 pM
- hAmyR3 potency, EC50 (pM); CRE-luciferase reporter in BHK cells [2]: 1.69 pM
B2: N^1-[(4S)-4-carboxy-4-(17-carboxyheptadecanoylamino)butanoyl]-[Ala1,Ser2,His3,Leu4,Ser5,Leu7,Gln8,Glu14,His17,Asp21,Pro22,Pro27,Asp31, Pro34,Asp35, … (peptide)
peptide: {C18 diacid-γGlu}-ASHLSTLQTQRLAEFLHHSSDPFGAIPSSTDVGPDTP-NH2
SMILES: CC[C@H](C)[C@H](NC(=O)[C@H](C)NC(=O)CNC(=O)[C@H](Cc1ccccc1)NC(=O)[C@@H]1CCCN1C(=O)[C@H](CC(=O)O)NC(=O)[C@H](CO)NC(=O)[C@H](CO)NC(=O)[C@H](Cc1c[nH]cn1)NC(=O)[C@H](Cc1c[nH]cn1)NC(=O)[C@H](CC(C)C)NC(=O)[C@H](Cc1ccccc1)NC(=O)[C@H](CCC(=O)O)NC(=O)[C@H](C)NC(=O)[C@H](CC(C)C)NC(=O)[C@H](CCCNC(=N)N)NC(=O)[C@H](CCC(N)=O)NC(=O)[C@@H](NC(=O)[C@H](CCC(N)=O)NC(=O)[C@H](CC(C)C)NC(=O)[C@@H](NC(=O)[C@H](CO)NC(=O)[C@H](CC(C)C)NC(=O)[C@H](Cc1c[nH]cn1)NC(=O)[C@H](CO)NC(=O)[C@H](C)NC(=O)CC[C@H](NC(=O)CCCCCCCCCCCCCCCCC(=O)O)C(=O)O)[C@@H](C)O)[C@@H](C)O)C(=O)N1CCC[C@H]1C(=O)N[C@@H](CO)C(=O)N[C@@H](CO)C(=O)N[C@H](C(=O)N[C@@H](CC(=O)O)C(=O)N[C@H](C(=O)NCC(=O)N1CCC[C@H]1C(=O)N[C@@H](CC(=O)O)C(=O)N[C@H](C(=O)N1CCC[C@H]1C(N)=O)[C@@H](C)O)C(C)C)[C@@H](C)O

- hCalcR potency, EC50 (pM); CRE-luciferase reporter in BHK cells [1]: 2.06 pM
- hAmyR3 potency, EC50 (pM); CRE-luciferase reporter in BHK cells [2]: 1.91 pM
B3: N^1-[(4S)-4-carboxy-4-(17-carboxyheptadecanoylamino)butanoyl]-[Ala1,Ser2,His3,Leu4,Ser5,Leu7,Gln8,Glu14,His17,Asp21,Pro25,Pro28,Pro29,Asp31, Pro37]-human amylin (peptide)
peptide: {C18 diacid-γGlu}-ASHLSTLQTQRLAEFLHHSSDNFGPILPPTDVGSNTP-NH2
SMILES: CC[C@H](C)[C@H](NC(=O)[C@@H]1CCCN1C(=O)CNC(=O)[C@H](Cc1ccccc1)NC(=O)[C@H](CC(N)=O)NC(=O)[C@H](CC(=O)O)NC(=O)[C@H](CO)NC(=O)[C@H](CO)NC(=O)[C@H](Cc1c[nH]cn1)NC(=O)[C@H](Cc1c[nH]cn1)NC(=O)[C@H](CC(C)C)NC(=O)[C@H](Cc1ccccc1)NC(=O)[C@H](CCC(=O)O)NC(=O)[C@H](C)NC(=O)[C@H](CC(C)C)NC(=O)[C@H](CCCNC(=N)N)NC(=O)[C@H](CCC(N)=O)NC(=O)[C@@H](NC(=O)[C@H](CCC(N)=O)NC(=O)[C@H](CC(C)C)NC(=O)[C@@H](NC(=O)[C@H](CO)NC(=O)[C@H](CC(C)C)NC(=O)[C@H](Cc1c[nH]cn1)NC(=O)[C@H](CO)NC(=O)[C@H](C)NC(=O)CC[C@H](NC(=O)CCCCCCCCCCCCCCCCC(=O)O)C(=O)O)[C@@H](C)O)[C@@H](C)O)C(=O)N[C@@H](CC(C)C)C(=O)N1CCC[C@H]1C(=O)N1CCC[C@H]1C(=O)N[C@H](C(=O)N[C@@H](CC(=O)O)C(=O)N[C@H](C(=O)NCC(=O)N[C@@H](CO)C(=O)N[C@@H](CC(N)=O)C(=O)N[C@H](C(=O)N1CCC[C@H]1C(N)=O)[C@@H](C)O)C(C)C)[C@@H](C)O

- hCalcR potency, EC50 (pM); CRE-luciferase reporter in BHK cells [1]: 1.49 pM
- hAmyR3 potency, EC50 (pM); CRE-luciferase reporter in BHK cells [2]: 1.09 pM
B4: N^1-[(4S)-4-carboxy-4-(19-carboxynonadecanoylamino)butanoyl]-[Ala1,Ser2,His3,Leu4,Ser5,Ala7,Gln8,Ala10,Glu14,His17,Pro25,Pro28,Pro29,Asp31,Glu35,Pro37],des-(19- … (peptide)
peptide: {C20 diacid-γGlu}-ASHLSTAQTARLAEFLHHFGPILPPTDVGSETP-NH2
SMILES: CC[C@H](C)[C@H](NC(=O)[C@@H]1CCCN1C(=O)CNC(=O)[C@H](Cc1ccccc1)NC(=O)[C@H](Cc1c[nH]cn1)NC(=O)[C@H](Cc1c[nH]cn1)NC(=O)[C@H](CC(C)C)NC(=O)[C@H](Cc1ccccc1)NC(=O)[C@H](CCC(=O)O)NC(=O)[C@H](C)NC(=O)[C@H](CC(C)C)NC(=O)[C@H](CCCNC(=N)N)NC(=O)[C@H](C)NC(=O)[C@@H](NC(=O)[C@H](CCC(N)=O)NC(=O)[C@H](C)NC(=O)[C@@H](NC(=O)[C@H](CO)NC(=O)[C@H](CC(C)C)NC(=O)[C@H](Cc1c[nH]cn1)NC(=O)[C@H](CO)NC(=O)[C@H](C)NC(=O)CC[C@H](NC(=O)CCCCCCCCCCCCCCCCCCC(=O)O)C(=O)O)[C@@H](C)O)[C@@H](C)O)C(=O)N[C@@H](CC(C)C)C(=O)N1CCC[C@H]1C(=O)N1CCC[C@H]1C(=O)N[C@H](C(=O)N[C@@H](CC(=O)O)C(=O)N[C@H](C(=O)NCC(=O)N[C@@H](CO)C(=O)N[C@@H](CCC(=O)O)C(=O)N[C@H](C(=O)N1CCC[C@H]1C(N)=O)[C@@H](C)O)C(C)C)[C@@H](C)O

- hCalcR potency, EC50 (pM); CRE-luciferase reporter in BHK cells [1]: 2.26 pM
- hAmyR3 potency, EC50 (pM); CRE-luciferase reporter in BHK cells [2]: 1.6 pM
B5: N^1-[(4S)-4-carboxy-4-(17-carboxyheptadecanoylamino)butanoyl]-[Ala1,Ser2,His3,Leu4, Ser5, Leu7,Gln8,Glu14,His17,Pro25, Pro28,Pro29,Asp31,Glu35,Pro37], … (peptide)
peptide: {C18 diacid-γGlu}-ASHLSTLQTQRLAEFLHHFGPILPPTDVGSETP-NH2
SMILES: CC[C@H](C)[C@H](NC(=O)[C@@H]1CCCN1C(=O)CNC(=O)[C@H](Cc1ccccc1)NC(=O)[C@H](Cc1c[nH]cn1)NC(=O)[C@H](Cc1c[nH]cn1)NC(=O)[C@H](CC(C)C)NC(=O)[C@H](Cc1ccccc1)NC(=O)[C@H](CCC(=O)O)NC(=O)[C@H](C)NC(=O)[C@H](CC(C)C)NC(=O)[C@H](CCCNC(=N)N)NC(=O)[C@H](CCC(N)=O)NC(=O)[C@@H](NC(=O)[C@H](CCC(N)=O)NC(=O)[C@H](CC(C)C)NC(=O)[C@@H](NC(=O)[C@H](CO)NC(=O)[C@H](CC(C)C)NC(=O)[C@H](Cc1c[nH]cn1)NC(=O)[C@H](CO)NC(=O)[C@H](C)NC(=O)CC[C@H](NC(=O)CCCCCCCCCCCCCCCCC(=O)O)C(=O)O)[C@@H](C)O)[C@@H](C)O)C(=O)N[C@@H](CC(C)C)C(=O)N1CCC[C@H]1C(=O)N1CCC[C@H]1C(=O)N[C@H](C(=O)N[C@@H](CC(=O)O)C(=O)N[C@H](C(=O)NCC(=O)N[C@@H](CO)C(=O)N[C@@H](CCC(=O)O)C(=O)N[C@H](C(=O)N1CCC[C@H]1C(N)=O)[C@@H](C)O)C(C)C)[C@@H](C)O

- hCalcR potency, EC50 (pM); CRE-luciferase reporter in BHK cells [1]: 3.22 pM
- hAmyR3 potency, EC50 (pM); CRE-luciferase reporter in BHK cells [2]: 2.96 pM
B6: N^1-[(4S)-4-carboxy-4-(17-carboxyheptadecanoylamino)butanoyl]-[Ala1,Ser2,His3,Leu4,Ser5,Ala7,Gln8,Glu14,His17,Asp21,Pro22,Pro27,Asp31,Pro34,Asp35]-human amylin (peptide)
peptide: {C18 diacid-γGlu}-ASHLSTAQTQRLAEFLHHSSDPFGAIPSSTDVGPDTY-NH2
SMILES: CC[C@H](C)[C@H](NC(=O)[C@H](C)NC(=O)CNC(=O)[C@H](Cc1ccccc1)NC(=O)[C@@H]1CCCN1C(=O)[C@H](CC(=O)O)NC(=O)[C@H](CO)NC(=O)[C@H](CO)NC(=O)[C@H](Cc1c[nH]cn1)NC(=O)[C@H](Cc1c[nH]cn1)NC(=O)[C@H](CC(C)C)NC(=O)[C@H](Cc1ccccc1)NC(=O)[C@H](CCC(=O)O)NC(=O)[C@H](C)NC(=O)[C@H](CC(C)C)NC(=O)[C@H](CCCNC(=N)N)NC(=O)[C@H](CCC(N)=O)NC(=O)[C@@H](NC(=O)[C@H](CCC(N)=O)NC(=O)[C@H](C)NC(=O)[C@@H](NC(=O)[C@H](CO)NC(=O)[C@H](CC(C)C)NC(=O)[C@H](Cc1c[nH]cn1)NC(=O)[C@H](CO)NC(=O)[C@H](C)NC(=O)CC[C@H](NC(=O)CCCCCCCCCCCCCCCCC(=O)O)C(=O)O)[C@@H](C)O)[C@@H](C)O)C(=O)N1CCC[C@H]1C(=O)N[C@@H](CO)C(=O)N[C@@H](CO)C(=O)N[C@H](C(=O)N[C@@H](CC(=O)O)C(=O)N[C@H](C(=O)NCC(=O)N1CCC[C@H]1C(=O)N[C@@H](CC(=O)O)C(=O)N[C@H](C(=O)N[C@@H](Cc1ccc(O)cc1)C(N)=O)[C@@H](C)O)C(C)C)[C@@H](C)O
